Positions of bridges follow the written chain, without caps; N, C: chain ends. Non-standard residues stand in square brackets, D forms with d. Primed or numbered codes have the meaning given here. mXylyl = bridging moiety between residues (mXylyl(i,j)); Trp(7-aza) = N[C@@H](Cc1c[nH]c2ncccc12)C(=O)O; mXylyl(4) = bridging moiety between residues; Trp(1-Me) = Cn1cc(C[C@H](N)C(=O)O)c2ccccc21; pXylyl = bridging moiety between residues; Phg = N[C@H](C(=O)O)c1ccccc1; Tle = CC(C)(C)[C@H](N)C(=O)O; NMeS = CN[C@@H](CO)C(=O)O; hCys = N[C@@H](CCS)C(=O)O; Nva = CCC[C@H](N)C(=O)O; Sar = CNCC(=O)O
Biological target: human C5 protein (human, UniProt P01031 19-673; P01031 678-1676)
Assay: cell-based or functional assay

Binder | Avg. IC50, human hemolysis assay (complete human sera) [µM]
Ac-[Nva][hCys][Phg]T[Trp(7-aza)]EY[NMeS]H[hCys][Nva]-NH2 (linker 2-10 via pXylyl) [R3108] | > 75
Ac-YEN[Tle]Y[Trp(1-Me)]EYP[Phg][Nva]-NH2 (SMILES CCC[C@H](NC(=O)[C@@H](NC(=O)[C@@H]1CCCN1C(=O)[C@H](Cc1ccc(O)cc1)NC(=O)[C@H](CCC(=O)O)NC(=O)[C@H](Cc1cn(C)c2ccccc12)NC(=O)[C@H](Cc1ccc(O)cc1)NC(=O)[C@@H](NC(=O)[C@H](CC(N)=O)NC(=O)[C@H](CCC(=O)O)NC(=O)[C@H](Cc1ccc(O)cc1)NC(C)=O)C(C)(C)C)c1ccccc1)C(N)=O) [R3110] | 2.94
Ac-[Nva]CYE[Sar][Tle]Y[Trp(7-aza)]EC[Nva]P[Nva]-NH2 (linker 2-10 via mXylyl) [R3009] | > 100
Ac-[Nva]CYE[Sar][Tle]Y[Trp(7-aza)]E[Nva][Nva]PC-NH2 (linker 2-13 via mXylyl) [R3010] | > 100
Ac-[Nva]C[Phg]T[Trp(1-Me)]EY[NMeS]AC[Nva]-NH2 (linker 2-10 via mXylyl(4)) [R3109] | > 100
Ac-[Nva]C[Phg]T[Trp(7-aza)]EY[NMeS]HGC[Nva]-NH2 (linker 2-11 via mXylyl(4) (inferred)) [R3101] | > 100
Ac-[Nva]CYKNYH[Trp(7-aza)]EYP[Tle]Y-NH2 (SMILES CCC[C@H](NC(C)=O)C(=O)N[C@@H](CS)C(=O)N[C@@H](Cc1ccc(O)cc1)C(=O)N[C@@H](CCCCN)C(=O)N[C@@H](CC(N)=O)C(=O)N[C@@H](Cc1ccc(O)cc1)C(=O)N[C@@H](Cc1c[nH]cn1)C(=O)N[C@@H](Cc1c[nH]c2ncccc12)C(=O)N[C@@H](CCC(=O)O)C(=O)N[C@@H](Cc1ccc(O)cc1)C(=O)N1CCC[C@H]1C(=O)N[C@H](C(=O)N[C@@H](Cc1ccc(O)cc1)C(N)=O)C(C)(C)C) [R3000] | > 10
Ac-[Nva]C[Phg]T[Trp(7-aza)]EY[NMeS]H[hCys][Nva]-NH2 (linker 2-10 via mXylyl(4)) [R3105] | > 5
Ac-[Nva][hCys][Phg]T[Trp(7-aza)]EY[NMeS]HC[Nva]-NH2 (linker 2-10 via mXylyl(4)) [R3103] | > 25
Ac-[Nva][hCys][Phg]T[Trp(7-aza)]EY[NMeS]HC[Nva]-NH2 (linker 2-10 via pXylyl) [R3104] | > 2
Ac-[Nva]C[Phg]T[Trp(7-aza)]EY[NMeS]H[hCys][Nva]-NH2 (linker 2-10 via pXylyl) [R3106] | > 5
Ac-[Nva]C[Phg]T[Trp(7-aza)]EYPHC[Nva]-NH2 (linker 2-10 via mXylyl(4)) [R3102] | 0.978
Ac-[Nva][hCys][Phg]T[Trp(7-aza)]EY[NMeS]H[hCys][Nva]-NH2 (linker 2-10 via mXylyl(4)) [R3107] | > 75
